Laboratory results taken from patent US20020090382A1, “Antiviral compounds and methods” (University of Pittsburgh of the Commonwealth System of …, priority 2000, published 2002).
Substitutions are numbered along the chain they refer to. Numbers in names are those of the source.

B1: L25D (protein)
chain: KYALIDASLKMADPNRFRGKDLPVDDQLTDPPGVRRVYHIQAGLPDPFQPPSLPITVYYAVLERACRSVLLNAPSEAPQIVRGASEDVRKQPYNLTIAWFRMGGNCAIPITVMEYTECSYNKSLGACPIRTQPRWNYYDSFSAVSEDNLGFLMHAPAFETAGTYLRLVKINDWTEITQFILEHRAKGSCKYALPLRIPPSACLSPQAYQQGVTVDSIGMLPRFIPENQRTVAVYSLKIAGWHGPKAPYTSTLLPPELSETPNATQPELAPEDPEDSALLEDPVGTVAPQIPPNWHIPSIQDAATPYHPPATPNNMGLIAGAVGGSLLAALVICGIVYWMHRRTRKAPKRIRLPHIREDDQPSSHQPLFY
B2: L25T (protein)
chain: B1 chain with D25T
B3: L25H (protein)
chain: B1 chain with D25H
B4: D26H (protein)
chain: B1 chain with D25L, D26H

Tested on: VD60 cells
Assay: Transient complementation of gD-null virus KΔUS3-8Z, titers on VD60 cells
Type: cell-based
Conditions: relative to wild-type gD (100%) and gD− (0%); KΔUS3-8Z virus
Source text: (§1) In a first transient complementation assay, several cell lines were employed. VD60 cells express wild-type gD endogenously which complements the deleted gD gene of KΔUS3-8Z for plaque formation, but only if the virus can initially infect using the gD product of the transfected gene. Thus, plaque formation on VD60 cells indicates complementation of gD's attachment/entry function by the transfected gene. CHO cells lack gD receptors and are resistant to HSV infection, but CHO cells transduced with HveA or HveC expression plasmids (CHO-HveA and CHO-HveC cells, respectively) are susceptible. KΔUS3-8Z misses the complete gD gene (US6) due to a large deletion extending from US3 to US8 and therefore offers no target for homologous recombination with transfected gD genes or the stable gD gene of VD60 cells. […] Since the progeny virus lacks gD, plaques will not form on these cells and virus entry was therefore determined by measurement of lacZ reporter gene expression.
(§2) To conduct the assay, Vero cells were transfected with LIPOFECTAMINE-PLUS (GIBCO) for 4 h at 37° C., the cell monolayers washed and incubated with DMEM/10% fetal bovine serum (FBS) for 16 h at 37° C., and the transfected cells infected with KΔUS3-8Z at an MOI of 3 for 2 h at 37° C. After removal of the medium and inactivation of residual extracellular virus by incubation of the monolayer with 0.1M glycine (pH 3.0) for 1 min at room temperature, fresh medium was added and the cells incubated at 37° C. for 48 hours. The medium was subsequently removed and temporarily stored on ice while the cells were being lysed by freeze-thawing and sonication. Cell debris was pelleted by low-speed centrifugation and the supernatant combined with the previously stored medium. Virus titers were determined on gD-complementing VD60 cells. Complementing activity was determined by infection of CHO-HveA, CHO-HveC, and control CHO-K cells. Infected cells were lysed in a buffer containing 1% NP-40, 1 mM MgCl2, 50 mM β-mercaptoethanol, and 4 mg/ml β-galatosidase substrate O-nitrophenyl β-D-galactopyranoside (ONPG, Sigma) in a total volume of 50 μl. The enzyme-substrate reaction was carried out at 37° C. and stopped by addition of an equal volume of 1M Na2CO3 after color development. β-galactosidase activity was measured by reading the absorbance at 420 nm. One hundred percent complementation was defined as the difference between the A420 values obtained for the wild-type (pSP72-gD) and negative control (pgD^−) gD plasmids. Relative complementation efficiencies were calculated as 100%×[A420(mutant)−A420(gD^−)]/[A420(wild type)−A420(gD^−)].

Point of comparison: B2, “% Complementation VD60” value 14%. Against it:
- B1 — lower, 10%
- B3 — the same, 14%
- B4 — higher, 17%

Tested on: CHO-HveA cells
Assay: Transient complementation of gD-null virus KΔUS3-8Z, entry into CHO-HveA cells (lacZ)
Type: cell-based, Chinese hamster
Conditions: relative to wild-type gD (100%) and gD− (0%); KΔUS3-8Z virus, A420 β-galactosidase
Source text: as §1, §2

Point of comparison: B1, “% Complementation CHO-HveA” value 0%. Against it:
- B2 — the same, 0%
- B3 — the same, 0%
- B4 — higher, 10%

Tested on: CHO-HveC cells
Assay: Transient complementation of gD-null virus KΔUS3-8Z, entry into CHO-HveC cells (lacZ)
Type: cell-based, Chinese hamster
Conditions: relative to wild-type gD (100%) and gD− (0%); KΔUS3-8Z virus, A420 β-galactosidase
Source text: as §1, §2

Point of comparison: B2, “% Complementation CHO-HveC” value 3%. Against it:
- B1 — higher, 14%
- B3 — higher, 12%
- B4 — higher, 11%
